This passage reports Kd results from publication PMC11161652, “ASXLs binding to the PHD2/3 fingers of MLL4 provides a mechanism for the recruitment of BAP1 to active enhancers” (Nature Communications, 2024).

B1: PHD2 and PHD3 fingers of human MLL4 (aa 227-324) [human] / ASXL2 peptide (residues 650-670 of ASXL2) [human] (parent complex)
chain 1: ARCAVCEGPGELCDLFFCTSCGHHYHGACLDTALTARKRAGWQCPECKVCQACRKPGNDSKMLVCETCDKGYHTFCLKPPMEELPAHSWKCKACRVCR
chain 2: NRTGARTLADIKAKAQLVKAQ

The variants in the first assay derive from B1. Put plainly: fluorescence spectroscopy.
Turning to chain 1 E66K, the Kd was 10 µM.

A further assay covers variants of B1. Put plainly: fluorescence spectroscopy. This is another data set of the same source.
As for chain 2 R6I, the Kd turned out to be 11 µM.

As usually defined, the Kd is a measure of binding affinity in units of concentration.
